Test results from the supplement of paper PMC5998384.

Legend:
[1] = test system: HeLa Kyoto; test: melting temperature (median over replicates), in situ; higher = more thermally stable
[2] = test system: HeLa Kyoto; test: solubility change mitosis vs G1/S (difference of NP-40 vs SDS log2 ratios) (log2 ratio difference); higher = more soluble in mitosis
[3] = test system: HeLa Kyoto; test: solubility in G1/S (NP-40 vs SDS abundance) (log2 ratio); higher = more soluble; details: cell cycle stage: G1/S
[4] = test system: HeLa Kyoto; test: thermal stability score vs G1/S (z-score of summed log2 fold changes over temperatures); higher = more thermally stable than in G1/S
[5] = cell cycle stage: early G1 (4.5 h after nocodazole release)
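Throughout, for melting temperature (median over replicates), in situ: HeLa Kyoto cells synchronized by double thymidine or nocodazole block, proteins quantified by TMT10plex mass spectrometry, three independent biological replicates.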
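Throughout, for solubility change mitosis vs G1/S (difference of NP-40 vs SDS log2 ratios): synchronized HeLa Kyoto cells (double thymidine block for G1/S, nocodazole release for mitosis), protein amounts in NP-40 versus SDS lysates quantified by mass spectrometry, three biological replicates.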
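Throughout, for solubility in G1/S (NP-40 vs SDS abundance): HeLa Kyoto cells arrested at G1/S by double thymidine block, proteins quantified by TMT10plex mass spectrometry in mild NP-40 versus SDS extracts, three biological replicates.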
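Throughout, for thermal stability score vs G1/S (z-score of summed log2 fold changes over temperatures): synchronized HeLa Kyoto cells, proteins quantified by TMT10plex mass spectrometry, three biological replicates, mitosis taken 0.5 h after nocodazole release, G1/S directly after double thymidine block.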

Sequence | melting temperature ([1]; cell cycle stage: G1/S) | melting temperature ([1]; cell cycle stage: mitosis) | solubility change mitosis (log2) [2] | solubility in G1/S (log2) [3] | thermal stability score [4, 5] | thermal stability score ([4]; cell cycle stage: mitosis)
MAAPEPLRPRLCRLVRGEQGYGFHLHGEKGRRGQFIRRVEPGSPAEAAALRAGDRLVEVNGVNVEGETHHQVVQRIKAVEGQTRLLVVDQETDEELRRRQLTCTEEMAQRGLPPAHDPWEPKPDWAHTGSHSSEAGKKDVSGPLRELRPRLCHLRKGPQGYGFNLHSDKSRPGQYIRSVDPGSPAARSGLRAQDRLIEVNGQNVEGLRHAEVVASIKAREDEARLLVVDPETDEHFKRLRVTPTEEHVEGPLPSPVTNGTSPAQLNGGSACSSRSDLPGSDKDTEDGSAWKQDPFQESGLHLSPTAAEAKEKARAMRVNKRAPQMDWNRKREIFSNF [SLC9A3R2] | 53.6 °C | 54.2 °C | -0.0543 | 0.422 | -1.69 | -3.57
MAAPGSARRPLLLLLLLLLLGLMHCASAAMFMVKNGNGTACIMANFSAAFSVNYDTKSGPKNMTFDLPSDATVVLNRSSCGKENTSDPSLVIAFGRGHTLTLNFTRNATRYSVQLMSFVYNLSDTHLFPNASSKEIKTVESITDIRADIDKKYRCVSGTQVHMNNVTVTLHDATIQAYLSNSSFSRGETRCEQDRPSPTTAPPAPPSPSPSPVPKSPSVDKYNVSGTNGTCLLASMGLQLNLTYERKDNTTVTRLLNINPNKTSASGSCGAHLVTLELHSEGTTVLLFQFGMNASSSRFFLQGIQLNTILPDARDPAFKAANGSLRALQATVGNSYKCNAEEHVRVTKAFSVNIFKVWVQAFKVEGGQFGSVEECLLDENSMLIPIAVGGALAGLVLIVLIAYLVGRKRSHAGYQTI [LAMP1] | 59.9 °C | 61.1 °C | 0.0596 | 0.0646 | -2.35 | -3.71
MAAPLRIQSDWAQALRKDEGEAWLSCHPPGKPSLYGSLTCQGIGLDGIPEVTASEGFTVNEINKKSIHISCPKENASSKFLAPYTTFSRIHTKSITCLDISSRGGLGVSSSTDGTMKIWQASNGELRRVLEGHVFDVNCCRFFPSGLVVLSGGMDAQLKIWSAEDASCVVTFKGHKGGILDTAIVDRGRNVVSASRDGTARLWDCGRSACLGVLADCGSSINGVAVGAADNSINLGSPEQMPSEREVGTEAKMLLLAREDKKLQCLGLQSRQLVFLFIGSDAFNCCTFLSGFLLLAGTQDGNIYQLDVRSPRAPVQVIHRSGAPVLSLLSVRDGFIASQGDGSCFIVQQDLDYVTELTGADCDPVYKVATWEKQIYTCCRDGLVRRYQLSDL [PAAF1] | 54 °C | 53.9 °C | -0.218 | -0.094 | -0.462 | -0.84
MAAPMEVAVCTDSAAPMWSCIVWELHSGANLLTYRGGQAGPRGLALLNGEYLLAAQLGKNYISAWELQRKDQLQQKIMCPGPVTCLTASPNGLYVLAGVAESIHLWEVSTGNLLVILSRHYQDVSCLQFTGDSSHFISGGKDCLVLVWSLCSVLQADPSRIPAPRHVWSHHALPITDLHCGFGGPLARVATSSLDQTVKLWEVSSGELLLSVLFDVSIMAVTMDLAEHHMFCGGSEGSIFQVDLFTWPGQRERSFHPEQDAGKVFKGHRNQVTCLSVSTDGSVLLSGSHDETVRLWDVQSKQCIRTVALKGPVTNAAILLAPVSMLSSDFRPSLPLPHFNKHLLGAEHGDEPRHGGLTLRLGLHQQGSEPSYLDRTEQLQAVLCSTMEKSVLGGQDQLRVRVTELEDEVRNLRKINRDLFDFSTRFITRPAK [WDR18] | 56.6 °C | 54.1 °C | 0.571 | -1.23 | -1.8 | -5.26
MAAPPGEYFSVGSQVSCRTCQEQRLQGEVVAFDYQSKMLALKCPSSSGKPNHADILLINLQYVSEVEIINDRTETPPPLASLNVSKLASKARTEKEEKLSQAYAISAGVSLEGQQLFQTIHKTIKDCKWQEKNIVVMEEVVITPPYQVENCKGKEGSALSHVRKIVEKHFRDVESQKILQRSQAQQPQKEAALSS [LSM12] | 52.3 °C | 52.3 °C | 0.105 | -0.264 | -0.688 | -0.784
MAAPRPSPAISVSVSAPAFYAPQKKFGPVVAPKPKVNPFRPGDSEPPPAPGAQRAQMGRVGEIPPPPPEDFPLPPPPLAGDGDDAEGALGGAFPPPPPPIEESFPPAPLEEEIFPSPPPPPEEEGGPEAPIPPPPQPREKVSSIDLEIDSLSSLLDDMTKNDPFKARVSSGYVPPPVATPFSSKSSTKPAAGGTAPLPPWKSPSSSQPLPQVPAPAQSQTQFHVQPQPQPKPQVQLHVQSQTQPVSLANTQPRGPPASSPAPAPKFSPVTPKFTPVASKFSPGAPGGSGSQPNQKLGHPEALSAGTGSPQPPSFTYAQQREKPRVQEKQHPVPPPAQNQNQVRSPGAPGPLTLKEVEELEQLTQQLMQDMEHPQRQNVAVNELCGRCHQPLARAQPAVRALGQLFHIACFTCHQCAQQLQGQQFYSLEGAPYCEGCYTDTLEKCNTCGEPITDRMLRATGKAYHPHCFTCVVCARPLEGTSFIVDQANRPHCVPDYHKQYAPRCSVCSEPIMPEPGRDETVRVVALDKNFHMKCYKCEDCGKPLSIEADDNGCFPLDGHVLCRKCHTARAQT [ZYX] | 55.9 °C | 65.5 °C | -0.128 | 0.412 | -1.65 | 0.522
MAAPSAGSWSTFQHKELMAADRGRRILGVCGMHPHHQETLKKNRVVLAKQLLLSELLEHLLEKDIITLEMRELIQAKVGSFSQNVELLNLLPKRGPQAFDAFCEALRETKQGHLEDMLLTTLSGLQHVLPPLSCDYDLSLPFPVCESCPLYKKLRLSTDTVEHSLDNKDGPVCLQVKPCTPEFYQTHFQLAYRLQSRPRGLALVLSNVHFTGEKELEFRSGGDVDHSTLVTLFKLLGYDVHVLCDQTAQEMQEKLQNFAQLPAHRVTDSCIVALLSHGVEGAIYGVDGKLLQLQEVFQLFDNANCPSLQNKPKMFFIQACRGDETDRGVDQQDGKNHAGSPGCEESDAGKEKLPKMRLPTRSDMICGYACLKGTAAMRNTKRGSWYIEALAQVFSERACDMHVADMLVKVNALIKDREGYAPGTEFHRCKEMSEYCSTLCRHLYLFPGHPPT [CASP2] | 50.2 °C | 51.5 °C | -0.0504 | 0.0545 | 0.766 | 3.33
